Patent US20230407373A1 (priority 2020, published 2023)

B1: ACLY (protein, UniProt P53396 1-1101, looked up)
ATP-citrate synthase: MSAKAISEQTGKELLYKFICTTSAIQNRFKYARVTPDTDWARLLQDHPWLLSQNLVVKPDQLIKRRGKLGLVGVNLTLDGVKSWLKPRLGQEATVGKATGFLKNFLIEPFVPHSQAEEFYVCIYATREGDYVLFHHEGGVDVGDVDAKAQKLLVGVDEKLNPEDIKKHLLVHAPEDKKEILASFISGLFNFYEDLYFTYLEINPLVVTKDGVYVLDLAAKVDATADYICKVKWGDIEFPPPFGREAYPEEAYIADLDAKSGASLKLTLLNPKGRIWTMVAGGGASVVYSDTICDLGGVNELANYGEYSGAPSEQQTYDYAKTILSLMTREKHPDGKILIIGGSIANFTNVAATFKGIVRAIRDYQGPLKEHEVTIFVRRGGPNYQEGLRVMGEVGKTTGIPIHVFGTETHMTAIVGMALGHRPIPNQPPTAAHTANFLLNASGSTSTPAPSRTASFSESRADEVAPAKKAKPAMPQDSVPSPRSLQGKSTTLFSRHTKAIVWGMQTRAVQGMLDFDYVCSRDEPSVAAMVYPFTGDHKQKFYWGHKEILIPVFKNMADAMRKHPEVDVLINFASLRSAYDSTMETMNYAQIRTIAIIAEGIPEALTRKLIKKADQKGVTIIGPATVGGIKPGCFKIGNTGGMLDNILASKLYRPGSVAYVSRSGGMSNELNNIISRTTDGVYEGVAIGGDRYPGSTFMDHVLRYQDTPGVKMIVVLGEIGGTEEYKICRGIKEGRLTKPIVCWCIGTCATMFSSEVQFGHAGACANQASETAVAKNQALKEAGVFVPRSFDELGEIIQSVYEDLVANGVIVPAQEVPPPTVPMDYSWARELGLIRKPASFMTSICDERGQELIYAGMPITEVFKEEMGIGGVLGLLWFQKRLPKYSCQFIEMCLMVTADHGPAVSGAHNTIICARAGKDLVSSLTSGLLTIGDRFGGALDAAAKMFSKAFDSGIIPMEFVNKMKKEGKLIMGIGHRVKSINNPDMRVQILKDYVRQHFPATPLLDYALEVEKITTSKKPNLILNVDGLIGVAFVDMLRNCGSFTREEADEYIDIGALNGIFVLGRSMGFIGHYLDQKRLKQGLYRHPWDDISYVLPEHMSM
B2: HNRNPA3 (protein, UniProt P51991 1-378, looked up)
Heterogeneous nuclear …: MEVKPPPGRPQPDSGRRRRRRGEEGHDPKEPEQLRKLFIGGLSFETTDDSLREHFEKWGTLTDCVVMRDPQTKRSRGFGFVTYSCVEEVDAAMCARPHKVDGRVVEPKRAVSREDSVKPGAHLTVKKIFVGGIKEDTEEYNLRDYFEKYGKIETIEVMEDRQSGKKRGFAFVTFDDHDTVDKIVVQKYHTINGHNCEVKKALSKQEMQSAGSQRGRGGGSGNFMGRGGNFGGGGGNFGRGGNFGGRGGYGGGGGGSRGSYGGGDGGYNGFGGDGGNYGGGPGYSSRGGYGGGGPGYGNQGGGYGGGGGYDGYNEGGNFGGGNYGGGGNYNDFGNYSGQQQSNYGPMKGGSFGGRSSGSPYGGGYGSGGGSGGYGSRRF
B3: ZC3H7A: host protein, UniProt Q8IWRD (protein, UniProt Q8IWR0 1-971, looked up)
Zinc finger CCCH …: MSNVSEERRKRQQNIKEGLQFIQSPLSYPGTQEQYAVYLRALVRNLFNEGNDVYREHDWNNSISQYTEALNIADYAKSEEILIPKEIIEKLYINRIACYSNMGFHDKVLEDCNIVLSLNASNCKALYRKSKALSDLGRYKKAYDAVAKCSLAVPQDEHVIKLTQELAQKLGFKIRKAYVRAELSLKSVPGDGATKALNHSVEDIEPDLLTPRQEAVPVVSLPAPSFSHEVGSELASVPVMPLTSILPLQVEESALPSAVLANGGKMPFTMPEAFLDDGDMVLGDELDDLLDSAPETNETVMPSALVRGPLQTASVSPSMPFSASLLGTLPIGARYAPPPSFSEFYPPLTSSLEDFCSSLNSFSMSESKRDLSTSTSREGTPLNNSNSSLLLMNGPGSLFASENFLGISSQPRNDFGNFFGSAVTKPSSSVTPRHPLEGTHELRQACQICFVKSGPKLMDFTYHANIDHKCKKDILIGRIKNVEDKSWKKIRPRPTKTNYEGPYYICKDVAAEEECRYSGHCTFAYCQEEIDVWTLERKGAFSREAFFGGNGKINLTVFKLLQEHLGEFIFLCEKCFDHKPRMISKRNKDNSTACSHPVTKHEFEDNKCLVHILRETTVKYSKIRSFHGQCQLDLCRHEVRYGCLREDECFYAHSLVELKVWIMQNETGISHDAIAQESKRYWQNLEANVPGAQVLGNQIMPGFLNMKIKFVCAQCLRNGQVIEPDKNRKYCSAKARHSWTKDRRAMRVMSIERKKWMNIRPLPTKKQMPLQFDLCNHIASGKKCQYVGNCSFAHSPEEREVWTYMKENGIQDMEQFYELWLKSQKNEKSEDIASQSNKENGKQIHMPTDYAEVTVDFHCWMCGKNCNSEKQWQGHISSEKHKEKVFHTEDDQYCWQHRFPTGYFSICDRYMNGTCPEGNSCKFAHGNAELHEWEERRDALKMKLNKARKDHLIGPNDNDFGKYSFLFKDLN
B4: PCBP2 (protein, UniProt Q15366 1-365, looked up)
Poly(rC)-binding protein 2: MDTGVIEGGLNVTLTIRLLMHGKEVGSIIGKKGESVKKMREESGARINISEGNCPERIITLAGPTNAIFKAFAMIIDKLEEDISSSMTNSTAASRPPVTLRLVVPASQCGSLIGKGGCKIKEIRESTGAQVQVAGDMLPNSTERAITIAGIPQSIIECVKQICVVMLETLSQSPPKGVTIPYRPKPSSSPVIFAGGQDRYSTGSDSASFPHTTPSMCLNPDLEGPPLEAYTIQGQYAIPQPDLTKLHQLAMQQSHFPMTHGNTGFSGIESSSPEVKGYWGLDASAQTTSHELTIPNDLIGCIIGRQGAKINEIRQMSGAQIKIANPVEGSTDRQVTITGSAASISLAQYLINVRLSSETGGMGSS
B5: SPATS2 (protein, UniProt Q86XZ4 1-545, looked up)
Spermatogenesis-associated …: MSRKQNQKDSSGFIFDLQSNTVLAQGGAFENMKEKINAVRAIVPNKSNNEIILVLQHFDNCVDKTVQAFMEGSASEVLKEWTVTGKKKNKKKKNKPKPAAEPSNGIPDSSKSVSIQEEQSAPSSEKGGMNGYHVNGAINDTESVDSLSEGLETLSIDARELEDPESAMLDTLDRTGSMLQNGVSDFETKSLTMHSIHNSQQPRNAAKSLSRPTTETQFSNMGMEDVPLATSKKLSSNIEKSVKDLQRCTVSLARYRVVVKEEMDASIKKMKQAFAELESCLMDREVALLAEMDKVKAEAMEILLSRQKKAELLKKMTHVAVQMSEQQLVELRADIKHFVSERKYDEDLGRVARFTCDVETLKKSIDSFGQVSHPKNSYSTRSRCSSVTSVSLSSPSDASAASSSTCASPPSLTSANKKNFAPGETPAAIANSSGQPYQPLREVLPGNRRGGQGYRPQGQKSNDPMNQGRHDSMGRYRNSSWYSSGSRYQSAPSQAPGNTIERGQTHSAGTNGTGVSMEPSPPTPSFKKGLPQRKPRTSQTEAVNS
B6: ATXN2 (protein, UniProt Q99700 1-1313, looked up)
Ataxin-2: MRSAAAAPRSPAVATESRRFAAARWPGWRSLQRPARRSGRGGGGAAPGPYPSAAPPPPGPGPPPSRQSSPPSASDCFGSNGNGGGAFRPGSRRLLGLGGPPRPFVVLLLPLASPGAPPAAPTRASPLGARASPPRSGVSLARPAPGCPRPACEPVYGPLTMSLKPQQQQQQQQQQQQQQQQQQQQQQQPPPAAANVRKPGGSGLLASPAAAPSPSSSSVSSSSATAPSSVVAATSGGGRPGLGRGRNSNKGLPQSTISFDGIYANMRMVHILTSVVGSKCEVQVKNGGIYEGVFKTYSPKCDLVLDAAHEKSTESSSGPKREEIMESILFKCSDFVVVQFKDMDSSYAKRDAFTDSAISAKVNGEHKEKDLEPWDAGELTANEELEALENDVSNGWDPNDMFRYNEENYGVVSTYDSSLSSYTVPLERDNSEEFLKREARANQLAEEIESSAQYKARVALENDDRSEEEKYTAVQRNSSEREGHSINTRENKYIPPGQRNREVISWGSGRQNSPRMGQPGSGSMPSRSTSHTSDFNPNSGSDQRVVNGGVPWPSPCPSPSSRPPSRYQSGPNSLPPRAATPTRPPSRPPSRPSRPPSHPSAHGSPAPVSTMPKRMSSEGPPRMSPKAQRHPRNHRVSAGRGSISSGLEFVSHNPPSEAATPPVARTSPSGGTWSSVVSGVPRLSPKTHRPRSPRQNSIGNTPSGPVLASPQAGIIPTEAVAMPIPAASPTPASPASNRAVTPSSEAKDSRLQDQRQNSPAGNKENIKPNETSPSFSKAENKGISPVVSEHRKQIDDLKKFKNDFRLQPSSTSESMDQLLNKNREGEKSRDLIKDKIEPSAKDSFIENSSSNCTSGSSKPNSPSISPSILSNTEHKRGPEVTSQGVQTSSPACKQEKDDKEEKKDAAEQVRKSTLNPNAKEFNPRSFSQPKPSTTPTSPRPQAQPSPSMVGHQQPTPVYTQPVCFAPNMMYPVPVSPGVQPLYPIPMTPMPVNQAKTYRAVPNMPQQRQDQHHQSAMMHPASAAGPPIAATPPAYSTQYVAYSPQQFPNQPLVQHVPHYQSQHPHVYSPVIQGNARMMAPPTHAQPGLVSSSATQYGAHEQTHAMYACPKLPYNKETSPSFYFAISTGSLAQQYAHPNATLHPHTPHPQPSATPTGQQQSQHGGSHPAPSPVQHHQHQAAQALHLASPQQQSAIYHAGLAPTPPSMTPASNTQSPQNSFPAAQQTVFTIHPSHVQPAYTNPPHMAHVPQAHVQSGMVPSHPTAHAPMMLMTTQPPGGPQAALAQSALQPIPVSTTAHFPYMTHPSVQAHHQQQL
B7: RBMS2 (protein, UniProt Q15434 1-407, looked up)
RNA-binding motif, …: MLLSVTSRPGISTFGYNRNNKKPYVSLAQQMAPPSPSNSTPNSSSGSNGNDQLSKTNLYIRGLQPGTTDQDLVKLCQPYGKIVSTKAILDKTTNKCKGYGFVDFDSPSAAQKAVTALKASGVQAQMAKQQEQDPTNLYISNLPLSMDEQELEGMLKPFGQVISTRILRDTSGTSRGVGFARMESTEKCEAIITHFNGKYIKTPPGVPAPSDPLLCKFADGGPKKRQNQGKFVQNGRAWPRNADMGVMALTYDPTTALQNGFYPAPYNITPNRMLAQSALSPYLSSPVSSYQRVTQTSPLQVPNPSWMHHHSYLMQPSGSVLTPGMDHPISLQPASMMGPLTQQLGHLSLSSTGTYMPTAAAMQGAYISQYTPVPSSSVSVEESSGQQNQVAVDAPSEHGVYSFQFNK

Key:
[1] = tested on: SARS-CoV-2 gRNA and sgRNAs; type: binding; conditions: for target (unweighted spectral count of the protein in the RNP capture experiment): LC-MS/MS label-free quantification, probe pool not given; for back-ground (unweighted spectral count of the protein in the control experiment): protein background of the control (e.g. no-probe) experiment; for target (unweighted spectral count in RNP capture): Probe II capture, LC-MS/MS LFQ; for background (unweighted spectral count in control): no-probe control pull-down, used as background for Probe II
HCoV-OC43 gRNA and sgRNA = type: binding; conditions: for target (unweighted spectral count, OC43 Probe II capture): type n_36_v, FDR<10%; for target (unweighted spectral count, OC43 Probe II capture) / target (unweighted spectral count): tested against no-probe control; for target (unweighted spectral count): OC43 Probe II, 24 hpi (type n_24_v), infected cells; for target (unweighted spectral count, OC43 Probe II) / background (unweighted spectral count, no-probe control): type n_48_v, 48 hpi; for target (unweighted spectral count, OC43 Probe II): OC43 Probe II capture on infected cells; for background (unweighted spectral count, no-probe control): no-probe control on infected cells

Molecule	target (unweighted spectral count of the protein in the RNP capture experiment) [1]	back-ground (unweighted spectral count of the protein in the control experiment) [1]	target (unweighted spectral count in RNP capture) [1]	background (unweighted spectral count in control) [1]	target (unweighted spectral count, OC43 Probe II capture) (HCoV-OC43 gRNA and sgRNA; 36 hpi)	target (unweighted spectral count) (HCoV-OC43 gRNA and sgRNA)	target (unweighted spectral count, OC43 Probe II) (HCoV-OC43 gRNA and sgRNA)	background (unweighted spectral count, no-probe control) (HCoV-OC43 gRNA and sgRNA)	target (spectral count) (HCoV-OC43 gRNA and sgRNA; type s_36_m, HCoV-OC43-infected HCT-8 cells, 36 hpi, Probe II)	background (spectral count) (HCoV-OC43 gRNA and sgRNA; type s_36_m, uninfected-probe control, 36 hpi, Probe II)
B1	6	1	–	–	–	–	–	–	–	–
B2	–	–	51	1	25	22	–	–	–	–
B3	–	–	14	1	9	8	9	1	9	1
B4	–	–	–	1	–	10	–	–	–	–
B5	5	1	–	–	–	–	–	–	–	–
B6	–	–	22	1	4	–	6	1	–	–
B7	–	–	14	1	4	–	–	–	–	–
